Experimental data from patent US9957295B2, “Peptides inhibiting cold-inducible RNA binding protein activity” (The Feinstein Institute for Medical Research, priority 2013, dated 2018).

Columns and labels:
healthy rats = test: Administration of recombinant CIRP to healthy rats; assay type: in vivo, rat
Protocol: As an index of the inflammatory cytokine cascade and the acute inflammatory response, supernatants from cells incubated with recombinant CIRP were measured for TNF-α and IL-6 levels in serum, tissue homogenates, and culture medium grown with macrophages using a commercially available enzyme-linked immunosorbent assay (ELISA) kits (BioSource International, Camarillo, Calif.) according to the manufacturer's instruction. To quantify TNF-α and IL-6 protein levels in serum and tissue, serum samples were harvested 4 h after hemorrhage, or 4 h after treatment with recombinant CIRP from animals by cardiac puncture at the time that the rats were sacrificed, and collected tissue samples, and carried out by the same method as above. HMGB1 levels were determined by Western blotting.
Serum concentrations of aspartate aminotransferase (AST), alanine aminotransferase (ALT), and lactate were determined by using assay kits according to the manufacturer's instructions (Pointe Scientific, Lincoln Park, Mich.).
Healthy rats were intravenously administered rmCIRP (1 mg/kg BW) or normal saline (vehicle). After the injection of rCIRP (1 mg/kg BW) or buffer solution (same volume), as control, serum levels of TNF-α increased markedly in the rCIRP group, about 5 fold higher than buffer (sham) group (FIG. 4A). […] RAW 264.7 cells were incubated with indicated concentrations of rmCIRP for 20 h. HMGB1 levels in conditioned medium (CM) were determined by Western blotting. Band intensities were quantified with densitometry. […] After 4 hours, blood and tissues were collected for analysis. […] Data are mean±s.e.m., n=6-9/group, *P<0.05 vs. vehicle.
In additional groups of normal healthy animals, rCIRP, for example rmCIRP (1 mg/kg BW) or buffer (same volume, 1 ml) were administered. At 4 h after the completion of treatment, blood samples were collected and placed on ice to allow clotting, and then were centrifuged at 1200 g for 10 min at 4° C., and the serum samples were stored at −80° C. until assayed. […]

[1] = tested on: wild-type and TLR4 knockout mice; test: rmCIRP injection into wild-type and Tlr4−/− mice; assay type: in vivo, mouse; settings: 1 or 5 mg/kg BW, after 4 h
Protocol: Tlr4^−/− mice were incubated with 1.5 μg/ml rmCIRP for 4 h. TNF-α levels in conditioned medium were assayed by ELISA. Data are mean±s.e.m. from three independent experiments. *P<0.05 vs. WT. In comparing the difference among wild-type and knockout mice targeting each receptor in response to rmCIRP, only TLR4-deficient macrophages lost the response for TNF-α induction, while RAGE- and TLR2-deficient macrophages maintained similar responses to wild-type macrophages (FIG. 13A). To confirm the requirement of TLR4 in mediating CIRP activity, wild-type and TLR4 knockout mice were injected with rmCIRP (1 or 5 mg/kg BW) or normal saline (vehicle). After 4 h, serum samples were collected and assayed for TNF-α and IL-6 by ELISA and HMGB1 by Western blotting as well as serum AST and ALT. Data are mean±s.e.m., n=6-9/group, *P<0.05 vs. WT no rmCIRP; #P<0.05 vs. WT with rmCIRP at 5 mg/kg. […] In contrast, these deleterious effects of rmCIRP on the wild-type mice were diminished in Tlr4^−/− mice.

B1: rmCIRP: recombinant murine (rat sequence) His-tagged CIRP expressed in E. coli (protein)
chain: MASDEGKLFVGGLSFDTNEQALEQVFSKYGQISEVVVVKDRETQRSRGFGFVTFENIDDAKDAMMAMNGKSVDGRQIRVDQAGKSSDNRSRGYRGGSAGGRGFFRGGRSRGRGFSRGGGDRGYGGGRFESRSGGYGGSRDYYASRSQGGSYGYRSSGGSYRDSYDSYATHNEHHHHHH
serum TNF-α versus buffer (sham) group (healthy rats; 1 mg/kg BW): about 5 fold
serum TNF-α, IL-6, HMGB1 levels and organ injury markers AST and ALT (healthy rats; 1 mg/kg BW intravenous, 4 hours, vs normal saline): significantly increased
serum levels of AST and ALT (healthy rats; 1 mg/kg BW, normal healthy rats): significantly elevated
deleterious effects in Tlr4−/− mice [1]: diminished
serum cytokines and organ injury markers in wild-type mice [1]: increase of serum proinflammatory cytokines (TNF-α, IL-6, and HMGB1) and organ injury markers (AST and ALT) in a dose-dependent manner
